The values below come from patent publication US20260274944A1 (VECT HORUS, published 2026).

Substitutions are numbered along the chain they refer to.

The target in assay [1] is T1, human RAGE (hRAGE) fused to EGFP, stably expressed on CHO cells (human, UniProt Q15109 23-404).
T1 construct: whole, on cells; also called CHO-hRAGE-EGFP; human receptor; not shown: EGFP from the pEGFP-N1 vector (Clontech), fused at the C-terminal (intracellular) end
The assay is described as follows: apparent Kd (Kd app), flow cytometry on CHO-hRAGE-EGFP cells. The procedure: FIG. 3. Apparent Kd determination of VHHs on hRAGE- and mRAGE-expressing CHO cell lines. (A) CHO-hRAGE-EGFP and CHO-mRAGE-EGFP cells were incubated 1 hr at 4° C. with increasing concentrations of VHHs, detected with a mouse anti-6His (1/1000) and an Alexa647-conjugated anti-mouse secondary antibody (1/400). Measurements were performed using flow cytometry. The ratio of fluorescence intensity for each point was normalized with the corresponding EGFP signal (receptor expression) and gave rise to the arbitrary units. Data are presented as mean±SEM of at least 3 independent experiments. (B) Characteristics of selected VHHs: Molecular Weight (Da); Apparent Kd on human RAGE (nM); Apparent Kd on mouse RAGE (nM). Data are presented as mean±SEM of at least 3 independent experiments.
The binding properties of VHHs with affinity for RAGE were tested using flow cytometry, and apparent affinities (K_{d app}) were determined. […] Fluorescence levels were assessed using an Attune N×T flow cytometer (Thermo Fisher Scientific).
Three VHHs (VHH 1, 2 and 5) out of 5 bound both the human and the mouse RAGE and induced a concentration-dependent shift of the signal (FIG. 3-A). […] Moreover, no labelling of the CHO WT control cells was detected with all the tested VHHs (not shown). The VHH K_{d app} were calculated using GraphPad Prism software.
(In flow cytometry, cells or beads pass a laser one at a time.)

Assay [2] deals with T2, mouse RAGE (mRAGE) fused to EGFP, expressed on CHO cells (mouse, UniProt Q62151 23-402).
T2 construct: whole, on cells; also called CHO-mRAGE-EGFP; murine RAGE; not shown: EGFP from the pEGFP-N1 vector (Clontech), fused at the C-terminal (intracellular) end
T2 sequence (Q62151 23-402): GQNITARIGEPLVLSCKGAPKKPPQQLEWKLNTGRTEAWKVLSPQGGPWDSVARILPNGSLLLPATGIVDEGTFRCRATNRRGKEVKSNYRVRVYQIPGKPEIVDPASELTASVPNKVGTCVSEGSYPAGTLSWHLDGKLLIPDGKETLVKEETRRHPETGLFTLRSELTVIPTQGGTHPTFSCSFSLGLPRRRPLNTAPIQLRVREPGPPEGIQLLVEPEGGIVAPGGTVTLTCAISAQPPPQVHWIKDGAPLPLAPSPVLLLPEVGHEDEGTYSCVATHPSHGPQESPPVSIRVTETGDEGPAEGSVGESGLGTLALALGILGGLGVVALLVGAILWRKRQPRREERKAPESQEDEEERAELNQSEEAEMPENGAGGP
The assay is described as follows: flow cytometry on CHO-mRAGE-EGFP cells, 4 °C, anti-6His detection.

Assay [3] concerns the target T3, HA-mRAGE (mouse, UniProt Q62151 23-402).
T3 construct: mature; Transiently expressed on CHO cells; also called full-length mRAGE with N-terminal HA tag; not shown: HA tag at the N-terminus; EGFP fused at the C-terminal end (pEGFP-N1)
The assay is described as follows: immunocytochemistry, 250 nM on transfected CHO cells, anti-human Fc detection. An excerpt:
To determine the binding domain of VHH-RAGE-Fc, inventors suppressed RAGE domains sequentially, expressed the resulting truncated constructs mRAGE-ΔV, mRAGE-ΔV-C1 (FIG. 9-A) and compared VHHRAGE-Fc binding on the full-length construct (mRAGE and HA-mRAGE) in transfected CHO cells. An HA tag was introduced in the N-ter of each receptor to validate appropriate presentation of the extracellular domain using anti-HA, non-permeabilizing immunocytochemistry. EGFP was fused at the C-terminal end to enable easy visualization of the truncated and full-length receptor by fluorescence microscopy. […] The synthetised DNA fragments were cloned into a pEGFP-N1 plasmid after restriction using XhoI EcoRI and ligation. CHO WT cells were transfected using jetPEI™ with the different plasmid constructs according to the manufacturer's instructions.
For immunocytochemistry, living transfected cells were incubated with 250 nM VHH-RAGE-hFc or anti-HA antibody for 1 hr at 37° C. Cells were then fixed using PBS-PFA 4%.

Assay [4] deals with T2, mouse RAGE (mRAGE) fused to EGFP, …. The assay is described as follows: immunocytochemistry, 50 nM on living CHO-mRAGE-EGFP cells, anti-hFc detection. The procedure:
(§1) Immunocytochemistry experiments on CHO cell lines expressing the mouse or human RAGE fused to EGFP were performed to confirm the ability of fusion proteins to bind the RAGE. For these experiments, VHH-Fc fusion proteins were incubated at 50 nM on living cells, detected using an Alexa594-conjugated anti-hFc antibody after cells fixation with PBS-PFA 4% and permeabilization of the cell membrane with PBS-0.1% Triton X100 and photographed with a confocal microscope.

Assay [5] has the same target. Put plainly: apparent Kd (Kd app), flow cytometry on CHO-mRAGE-EGFP cells. As to the method:
The binding properties of VHHs with affinity for RAGE were tested using flow cytometry, and apparent affinities (K_{d app}) were determined. All experiments were performed in 96 well plates using 2×10⁵ cells/well, at 4° C. with shaking. CHO cell lines expressing RAGE fused to EGFP or CHO WT cells were saturated with PBS/BSA 2% solution during 30 min to avoid nonspecific binding, followed by incubation with purified VHHs at concentrations ranging from 50 μM to 0.5 nM for 1 hr. After one wash in PBS/BSA 2%, cells were incubated for 1 hr with an anti-6His tag antibody (mouse), washed twice with PBS/BSA 2%, and incubated for 1 hr with an Alexa647-conjugated anti-mouse secondary antibody. After two last washes in PBS/BSA 2%, cells were fixed by incubation for 15 min with PBS/PFA 2%, washed once with PBS and finally resuspended in PBS. Fluorescence levels were assessed using an Attune N×T flow cytometer (Thermo Fisher Scientific).
The binding properties of VHH-siRNA conjugates with affinity for RAGE were tested using flow cytometry, and apparent affinities (K_{d app}) were determined. The same protocol as the one described in example IV was used.
All VHH-siRNAs bound the mRAGE and induced a concentration-dependent shift of the signal (FIG. 4-A), confirming that the VHH conjugated to both the siTTRm and the siSOD1m retained the binding to the receptor of interest. The VHH-siRNA K_{d app} were calculated using GraphPad Prism software.

Assay [6] has the same target. The assay is described as follows: flow cytometry competition on CHO-mRAGE-EGFP cells; competitor against tracer VHH 1-Fc. As to the method: FIG. 8. Competition assay between VHHs and VHH 1-Fc. (A) Principle of the competition test. In a first step, CHO-mRAGE-EGFP cells were incubated 1 hr at 4° C. with the competitor in dilution series. Second, the tracer at EC80-90 was added and incubated for 1 hr at 4° C. […] Measurements were performed using flow cytometry. (B) CHO-mRAGE-EGFP cells were incubated with the competitors (VHHs). Tracer (VHH 1-Fc) at EC80 was then added and detected with Alexa647-conjugated anti-hFc antibody (1/400).

Assay [7] concerns the target T1, human RAGE (hRAGE) fused to EGFP, …. The assay is described as follows: flow cytometry on CHO-hRAGE-EGFP cells, 4 °C, anti-6His detection.
The target is the same in assay [8]. The assay is described as follows: immunocytochemistry, 50 nM on living CHO-hRAGE-EGFP cells, anti-hFc detection. The procedure: as §1
Assay [9] concerns the target T4, RAGE in mice lungs (endogenous mouse RAGE at the alveolar epithelium) (mouse, UniProt Q62151 23-402).
T4 construct: whole, on cells; also called RAGE in the lung
Put plainly: double immunofluorescence on lung sections of mice injected at 35 nmol/kg, 48 hours post injection. The procedure: FIG. 10. Cellular binding/co-localization of VHH-Fc on RAGE in mice lungs. Immunocytochemistry was performed on the lungs of mice injected with VHH ctrl-Fc, VHH 1-Fc and VHH 5-Fc into tail vein at 35 nmol/kg. The mice were perfused with saline 48 hours post injection and the lungs were incubated in PFA 4% overnight. Lungs were extensively washed in PBS 1× and incubated 2 days in sucrose 30%. Double-immunofluorescent staining of lung tissue with anti-RAGE (Alexa Fluor 488, green) and with VHH-Fc (Alexa Fluor 594, red) antibodies were performed on lung sections. Cell nuclei were labeled with Hoechst #33342 at 0.5 μg/ml (blue). Co-labeling appears in yellow/orange in the merged pictures (right panel). Representative photographs were taken with a confocal microscope with 20× and 63× magnification.
To confirm the ability of fusion proteins to bind RAGE in vivo, immunocytochemistry experiments were performed on lungs of mice injected into the tail vein at 35 nmol/kg with VHH ctrl-Fc, VHH 1-Fc and VHH 5-Fc. Mice were perfused with saline 48 hours post injection and lungs were incubated in PFA 4% overnight. Lungs were extensively washed in PBS 1× and incubated 2 days in sucrose 30% before being snap frozen. The fixed lung was embedded in OCT and cut in 14 μm thick sections. […] Cell nuclei were labeled with Hoechst #33342. […]

T3 sequence (Q62151 23-402): as above
T1 sequence (Q15109 23-404): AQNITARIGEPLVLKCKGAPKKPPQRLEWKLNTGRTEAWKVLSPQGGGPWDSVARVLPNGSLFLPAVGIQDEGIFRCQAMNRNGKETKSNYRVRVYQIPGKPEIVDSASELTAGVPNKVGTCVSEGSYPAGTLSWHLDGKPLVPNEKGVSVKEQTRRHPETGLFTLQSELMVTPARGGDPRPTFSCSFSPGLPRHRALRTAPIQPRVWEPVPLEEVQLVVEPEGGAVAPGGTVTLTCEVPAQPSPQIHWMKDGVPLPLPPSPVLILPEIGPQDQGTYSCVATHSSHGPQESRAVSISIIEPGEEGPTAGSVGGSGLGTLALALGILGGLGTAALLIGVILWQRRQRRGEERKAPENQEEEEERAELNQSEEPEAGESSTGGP
T4 sequence (Q62151 23-402): as the sequence (Q62151 23-402) above

B1: VHH 2 (VHH)
VHH: QVQLVQSGGGLVQAGGSLRLSCAASGSVSSIYAMGWYRQAPGKQREWVTTITGRGITDYAASVKGRFTISRDTAKNAVYLQMNNLKPEDTARYYCKIDRRGYAPYWGQGTQVTVSS
notes: also called sdAb VHH 2
Regarding B1, the Kd in assay [1] was 350 nM. In addition, in [2], the binding result is listed as “binds”.

B2: VHH 2-Fc (Fc fusion)
chain: B1 VHH
notes: VHH with no tag fused to a human IgG1 Fc; also called VHHRAGE-Fc fusion; VHH-RAGE-Fc; not shown: human IgG1-Fc fragment encoded by the pINFUSE-IgG1-Fc2 vector (InvivoGen)
As to B2, the binding result in assay [3] and in [4] was “binds” throughout.

B3: VHH 4-siSOD1m (other)
VHH: EVQLVESGGGLVQAGGSLRLSCVASGRTFSNYAMAWFRQAPGEEREFVARISWRGGRTSYADSVKGRFTISRDNAKNTVYLQMISLKPEDTAVYYCASEGGAFGGVYSATGSYDYWGQGTQVTVSSAAAEQKLISEEDLNGAAHHHHHHGS
modifications: siRNA siSOD1m linked through an azido linker put by bacterial transglutaminase on the glutamine residue of the myc tag, then copper-free click chemistry
notes: VHH-siRNA conjugate
For B3, the Kd in [5] was 6.8 nM.

B4: VHH 2-siSOD1m (other)
VHH: QVQLVQSGGGLVQAGGSLRLSCAASGSVSSIYAMGWYRQAPGKQREWVTTITGRGITDYAASVKGRFTISRDTAKNAVYLQMNNLKPEDTARYYCKIDRRGYAPYWGQGTQVTVSSAAAEQKLISEEDLNGAAHHHHHHGS
modifications: siRNA siSOD1m linked through an azido linker put by bacterial transglutaminase on the glutamine residue of the myc tag, then copper-free click chemistry
notes: VHH-siRNA conjugate
On to B4, for which, in assay [5], the Kd was determined as 238 nM.

B5: VHH 5 (VHH)
VHH: EVQLVESGGGLVQPGGSLRLSCAASGTIFSLNPMGWYRQAPGKQLELVALISDSGTANYADFVRGRFTISRDTTKKTLYLQMNSLEPEDTAVYYCRSTFAAGNFYWGQGTQVTVSS
notes: also called sdAb VHH 5
On to B5, for which the Kd in [1] was found to be 204 nM; in assay [5] it was 1490 nM.

B6: VHH 3-Fc (Fc fusion)
chain: QVQLVQSGGGLVQAGGSLRLSCVASGRTFSNYAMAWFRQAPGEEREFVARISWSGGRTSYADSVKGRFTISRDNAKNTVYLQMISLKPEDTAVYYCATEAGAFGGVYSSTGSYDYWGQGTQVTVSS
notes: as for B2
For the molecule B6, the binding result in assay [3] and in assay [4] was “binds” each time.

B7: VHH 4 (VHH)
VHH: B6 chain with Q1E, Q6E, S54R, T98S, A100G, S109A
notes: also called sdAb VHH 4
On to B7, for which the Kd in [5] was 32 nM.

B8: VHH 3 (VHH)
VHH: B6 chain
notes: also called sdAb VHH 3
For the molecule B8, the binding result in [6] is listed as “binds”.

B9: VHH 1 (VHH)
VHH: QVQLVQSGGGLVQPGGSLRLSCAVSGSIFSSATMGWYRQAPGKQRELAARISSGGSTNYLDSVKGRFTISRDNAKNTVYLQMNSLKLEDTAVYYCRLQANFGLVDYWGKGTQVTVSS
notes: also called sdAb VHH 1
In the case of B9, the binding result in assay [7] and in assay [2] was “binds” in each case.

B10: VHH 1-Fc (Fc fusion)
chain: B9 VHH
notes: as for B2
Regarding B10, the binding result in assay [3], in assay [4], in assay [8] and in assay [9] was “binds” throughout.
